IC50 data for 48 substances are collected here from patent US20150004189A1.

The target of one experiment is HLA-DP DPB1*0402 (human). Put plainly: inhibition of radiolabeled peptide binding to purified HLA-DP.
The target of the next experiment is HLA-DP DPB1*0501 (human). The experiment is described as above.
A further experiment has as its target HLA-DP DPB1*0101 (human). Described as above.
In experiment [1] the target is HLA DP molecule DPB1*2001 (human). Nature of the experiment: inhibition of radiolabeled peptide binding to purified HLA DP.
Experiment [2] addresses HLA-DQ molecule DQB1*0503 (human). Nature of the experiment: competition: inhibition of radiolabeled peptide binding to purified HLA.
Experiment [3] has as its target HLA-DQ molecule DQB1*0502 (human). Described as above.
For experiment [4], the target named is HLA-DQ molecule DQB1*0602 (human). Described as above.
Experiment [5] has as its target HLA DP molecule DPB1*2001 (human). Nature of the experiment: competition vs radiolabeled peptide, purified HLA-DP.
For another experiment, the target named is HLA-DP DPB1*2001 (human). Nature of the experiment: inhibition of radiolabeled peptide binding to purified HLA-DP.
In a further experiment the target is HLA-DP DPB1*1401 (human). The description is as above.

What is called IC50 is the point on the concentration scale where inhibition reaches its midpoint. High values mean a need for much substance, low ones inhibition by little substance. On to Aln g 1 (11-25) peptide 3324.0004, for which the IC50 in the experiment with HLA-DP DPB1*0402 (human) was 1500 nM; in the experiment with HLA-DP DPB1*0501 (human) it was 493 nM; with HLA-DP DPB1*0101 (human), 85 nM.

In the case of Aln g 1 (111-125) peptide 3324.0007, the concentration for half-maximal inhibition (IC50) amounted to 3.3 nM with HLA-DP DPB1*0501 (human) and 391 nM with HLA-DP DPB1*0101 (human).

Turning to “Alt a 1 peptide, position 6 (Peptide ID 3324.0015)”, the IC50 in [1] stood at 2090 nM.

Take “Alt a 1 peptide, position 6, Peptide ID 3324.0015”: the figures for the IC50 in experiment [2] and in [3] were 7260 nM and 7020 nM, respectively.

For “Alt a 1 peptide, position 11, Peptide ID 3324.0017”, the results for the concentration for half-maximal inhibition (IC50) in experiment [2], in experiment [3] and in experiment [4] were 223 nM, 8000 nM and 21 nM, respectively.

“Alt a 1 peptide, position 116 (Peptide ID 3324.0014)” returned a 50% inhibitory concentration (IC50) in [1] of 200 nM.

Take “Alt a 1 peptide, position 116, Peptide ID 3324.0014”: the results for the 50% inhibitory concentration (IC50) in experiment [3] and in [4] were 8970 nM and 2230 nM, respectively.

With “Alt a 6 peptide, position 161, … (Peptide ID 3324.0073)”, the IC50 in [5] amounted to 7640 nM.

With Bet v 1 (96-110) peptide 3324.0353, the IC50 in the experiment with HLA-DP DPB1*2001 (human) was 5920 nM; in the experiment with HLA-DP DPB1*0101 (human), 4090 nM; in the experiment with HLA-DP DPB1*1401 (human) it was 5980 nM.

Take Bet v 1 (111-125) peptide 3324.0352: the IC50 came out at 13000 nM with HLA-DP DPB1*2001 (human), 2.2 nM with HLA-DP DPB1*0501 (human), 279 nM with HLA-DP DPB1*0101 (human) and 7590 nM with HLA-DP DPB1*1401 (human).

Regarding Bet v 6 (206-220) peptide 3324.0387, the IC50 worked out at 3.3 nM in the experiment with HLA-DP DPB1*2001 (human) and 3770 nM in the experiment with HLA-DP DPB1*1401 (human).

As to Bet v 6 (211-225) peptide 3324.0386, the values for the IC50 with HLA-DP DPB1*0501 (human) and in the experiment with HLA-DP DPB1*0101 (human) were 1050 nM and 1610 nM, respectively.

For the substance Cha o 1 (86-100) peptide 3324.0517, the IC50 is 83 nM with HLA-DP DPB1*2001 (human) and 11 nM with HLA-DP DPB1*0501 (human).

Consider “Cha o 1 peptide 96-110 … (Peptide ID 3324.0523)”, for which the IC50 in the experiment with HLA-DP DPB1*2001 (human) was 4960 nM; with HLA-DP DPB1*0501 (human), 7500 nM; with HLA-DP DPB1*1401 (human), 525 nM.

The substance “Cla h 5 peptide, position 6, … (Peptide ID 3324.0576)” yielded an IC50 in experiment [5] of 143 nM.

With “Cup a 1 peptide 66-80 … (Peptide ID 3324.0604)”, the IC50 is 23900 nM with HLA-DP DPB1*2001 (human), 6940 nM with HLA-DP DPB1*0101 (human) and 29 nM in the experiment with HLA-DP DPB1*1401 (human).

Take “Cup a 1 peptide 71-85 … (Peptide ID 3324.0607)”: the IC50 in the experiment with HLA-DP DPB1*2001 (human) worked out at 13600 nM; in the experiment with HLA-DP DPB1*0101 (human), 692 nM; in the experiment with HLA-DP DPB1*1401 (human), 3580 nM.

As to “Cup a 1 peptide 316-330 … (Peptide ID 3324.0606)”, the results for the IC50 with HLA-DP DPB1*2001 (human), in the experiment with HLA-DP DPB1*0101 (human) and with HLA-DP DPB1*1401 (human) were 25500 nM, 8240 nM and 155 nM, respectively.

Consider “Cup s 1 peptide 86-100 … (Peptide ID 3324.0615)”, for which the results for the IC50 with HLA-DP DPB1*2001 (human) and with HLA-DP DPB1*0101 (human) were 9180 nM and 676 nM, respectively.

For the substance “Cup s 1 peptide 91-105 … (Peptide ID 3324.0618)”, the 50% inhibitory concentration (IC50) came to 35400 nM with HLA-DP DPB1*2001 (human), 75 nM in the experiment with HLA-DP DPB1*0402 (human), 179 nM in the experiment with HLA-DP DPB1*0501 (human) and 806 nM in the experiment with HLA-DP DPB1*0101 (human).

For the substance “Cup s 1 peptide 96-110 … (Peptide ID 3324.0624)”, the IC50 amounted to 25700 nM in the experiment with HLA-DP DPB1*2001 (human) and 2360 nM in the experiment with HLA-DP DPB1*0101 (human).

“Dac g 2 peptide 11-25 … (Peptide ID 3324.0657)”: the results for the half-inhibitory concentration (IC50) with HLA-DP DPB1*2001 (human) and with HLA-DP DPB1*1401 (human) were 6270 nM and 8100 nM, respectively.

On to “Dac g 2 peptide 16-30 … (Peptide ID 3324.0658)”, for which the 50% inhibitory concentration (IC50) with HLA-DP DPB1*0501 (human) came to 717 nM; in the experiment with HLA-DP DPB1*0101 (human) it was 1350 nM; with HLA-DP DPB1*1401 (human), 32000 nM.

On to “Dac g 4 peptide 1-15 … (Peptide ID 3324.0663)”, for which the IC50 with HLA-DP DPB1*0501 (human) came out at 1440 nM.

The substance Der f 1 (136-150) peptide 3324.0666 registered an IC50 with HLA-DP DPB1*0101 (human) of 8430 nM.

In the experiment with HLA-DP DPB1*2001 (human), Der p 1 (131-145) peptide 3324.0832 showed an IC50 of 7.7 nM.

For Der p 1 (136-150) peptide 3324.0829, the IC50 came to 449 nM with HLA-DP DPB1*2001 (human), 4930 nM with HLA-DP DPB1*0501 (human), 1200 nM with HLA-DP DPB1*0101 (human) and 9420 nM in the experiment with HLA-DP DPB1*1401 (human).

As for Der p 1 (176-190) peptide 3324.0831, the IC50 with HLA-DP DPB1*0501 (human) came to 35200 nM.

Take Der p 1 (226-240) peptide 3324.0840: the IC50 in the experiment with HLA-DP DPB1*2001 (human) is 310 nM; with HLA-DP DPB1*0402 (human), 32 nM; in the experiment with HLA-DP DPB1*0501 (human), 4000 nM.

Take Der p 4 (96-110) peptide 3324.0987: the IC50 turned out to be 2930 nM in the experiment with HLA-DP DPB1*2001 (human), 3450 nM with HLA-DP DPB1*0501 (human) and 15500 nM with HLA-DP DPB1*0101 (human).

Substance Der p 4 (251-265) peptide 3324.0976 returned a half-inhibitory concentration (IC50) with HLA-DP DPB1*2001 (human) of 247 nM. This lies in the sub-micromolar range.

Der p 4 (321-335) peptide 3324.0977: the half-inhibitory concentration (IC50) with HLA-DP DPB1*2001 (human) came to 1000 nM; in the experiment with HLA-DP DPB1*0501 (human), 5070 nM; in the experiment with HLA-DP DPB1*0101 (human), 1640 nM.

In the experiment with HLA-DP DPB1*0101 (human), Der p 4 (381-395) peptide 3324.0986 gave an IC50 of 324 nM.

Take Der p 4 (386-400) peptide 3324.0978: the IC50 came out at 9000 nM with HLA-DP DPB1*2001 (human) and 2230 nM with HLA-DP DPB1*0501 (human).

As to Der p 4 (411-425) peptide 3324.0980, the IC50 in the experiment with HLA-DP DPB1*2001 (human) turned out to be 6.9 nM; in the experiment with HLA-DP DPB1*0402 (human) it was 1510 nM; with HLA-DP DPB1*0101 (human) it was 400 nM; with HLA-DP DPB1*1401 (human), 703 nM.

For Der p 4 (416-430) peptide 3324.0974, the IC50 with HLA-DP DPB1*2001 (human) turned out to be 3.5 nM; in the experiment with HLA-DP DPB1*0501 (human), 13 nM; in the experiment with HLA-DP DPB1*0101 (human), 9.1 nM.

Take Der p 4 (476-490) peptide 3324.0975: the IC50 in the experiment with HLA-DP DPB1*2001 (human) was determined as 379 nM; with HLA-DP DPB1*0402 (human), 83 nM; in the experiment with HLA-DP DPB1*0501 (human) it was 76 nM; with HLA-DP DPB1*0101 (human), 323 nM.

For the substance Der p 4 (482-496) peptide 3324.0971, the IC50 with HLA-DP DPB1*2001 (human) amounted to 509 nM; with HLA-DP DPB1*0402 (human), 66 nM; with HLA-DP DPB1*0101 (human), 173 nM; in the experiment with HLA-DP DPB1*1401 (human) it was 11400 nM.

Regarding “Lol p 2 peptide 51-65 … (Peptide ID 3324.1139)”, the IC50 with HLA-DP DPB1*2001 (human) came to 7940 nM.

Regarding “Lol p 2 peptide 56-70 … (Peptide ID 3324.1140)”, in the experiment with HLA-DP DPB1*0501 (human), the IC50 turned out to be 12400 nM.

“Lol p 11 peptide 111-125 … (Peptide ID 3324.1138)”: the values for the IC50 with HLA-DP DPB1*2001 (human), with HLA-DP DPB1*0501 (human) and in the experiment with HLA-DP DPB1*0101 (human) were 223 nM, 0.25 nM and 205 nM, respectively.

On to “Lol p 11 peptide 116-130 … (Peptide ID 3337.0029)”, for which the IC50 came to 8.1 nM in the experiment with HLA-DP DPB1*2001 (human), 51 nM with HLA-DP DPB1*0501 (human) and 18100 nM in the experiment with HLA-DP DPB1*1401 (human).

For “Que a 1 peptide 11-25 … (Peptide ID 3324.1587)”, the IC50 with HLA-DP DPB1*0501 (human) turned out to be 341 nM; with HLA-DP DPB1*0101 (human), 114 nM.

Consider “Que a 1 peptide 16-30 … (Peptide ID 3324.1585)”, for which the concentration for half-maximal inhibition (IC50) with HLA-DP DPB1*2001 (human) was 274 nM; in the experiment with HLA-DP DPB1*0501 (human), 80 nM; with HLA-DP DPB1*0101 (human), 17 nM.

Consider “Que a 1 peptide 21-35 … (Peptide ID 3324.1588)”, for which the IC50 with HLA-DP DPB1*2001 (human) is 3490 nM; with HLA-DP DPB1*0501 (human), 242 nM; with HLA-DP DPB1*0101 (human), 141 nM.

Consider “Que a 1 peptide 141-155 … (Peptide ID 3324.1584)”, for which the IC50 was 1300 nM with HLA-DP DPB1*2001 (human), 31 nM with HLA-DP DPB1*0501 (human), 21 nM with HLA-DP DPB1*0101 (human) and 40 nM with HLA-DP DPB1*1401 (human).

Regarding “Sal k 1 1 peptide 191-205, … (Peptide ID 3324.1590)”, the half-inhibitory concentration (IC50) came out at 558 nM with HLA-DP DPB1*2001 (human), 922 nM in the experiment with HLA-DP DPB1*0101 (human) and 1920 nM with HLA-DP DPB1*1401 (human).

Regarding “Sal k 1 1 peptide 321-335, … (Peptide ID 3324.1589)”, the figures for the IC50 with HLA-DP DPB1*2001 (human) and in the experiment with HLA-DP DPB1*0101 (human) were 4880 nM and 56 nM, respectively.
